This note sets out measurements from US20150044213A1 (published 2015).

Where “and” joins values, the source holds several entries; their conditions need not be identical. Equal entries are not always repeated.

For assay [1], the target named is T1, Recombinant human VEGF165 (human, UniProt P15692-4 27-191).
T1 construct: Immobilized on a CM4 sensor chip by amine coupling (about 500 RU)
Description: SPR (BIAcore T100), VEGF165 on CM4 chip, 1:1 Langmuir model; scFv released from hexPLA formulation, release sample at 14 w. Here is the method: (§1) The affinity of the released ESBA903 monomer toward human VEGF was measured using surface plasmon resonance analysis in comparison to a fresh ESBA903 reference. For evaluation of the binding kinetics, surface plasmon resonance measurements using a BIAcore T100 were performed. Carboxymethylated dextran biosensor chips (CM4, GE HealthCare, Uppsala, Sweden) were activated with N-ethyl-N′-(3-dimethylaminopropyl) carbodiimide hydrochloride and N-hydroxysuccinimide according to the supplier's instructions. Recombinant human VEGF₁₆₅ (PeproTech EC Ltd., London, UK) was immobilized on a CM4 sensor chip using a standard amine-coupling procedure to achieve a response of approximately 500 resonance units. 2-fold serial dilutions (2.5-20 nM) of ESBA903 standard and formulation samples in HBS-EP buffer (10 mM HEPES, 150 mM NaCl, 3 mM EDTA, and 0.05% surfactant P20, pH 7.4) were injected into the flow cells at a flow rate of 30 μL/min for 5 minutes. Dissociation of the anti-VEGF scFv from the VEGF on the CM4 chip was allowed to proceed for 10 minutes. After each injection cycle, surfaces were regenerated with 2 injections of 100 mM NaOH.
(§2) The apparent dissociation (kd) and association (kₐ) rate constants and the apparent dissociation equilibrium constant (KD) were calculated with BIAcore T100 evaluation Software version 2.0.1 using a one-to-one Langmuir binding model (Biacore Inc., Uppsala, Sweden).
Background: In SPR one partner is held on a chip, and binding of the other changes the refractive index at the surface.

Assay [2] concerns the target T1, Recombinant human VEGF165. Description: SPR (BIAcore T100), VEGF165 on CM4 chip, 1:1 Langmuir model; scFv released from hexPLA formulation, release sample at 4 w. Here is the method:
as §1, §2

In assay [3] the target is T1, Recombinant human VEGF165. Briefly: SPR (BIAcore T100), VEGF165 on CM4 chip, 1:1 Langmuir model; scFv released from hexPLA formulation, release sample at 3 d. On the procedure: as §1, §2
The target in assay [4] is T1, Recombinant human VEGF165. Description: SPR (BIAcore T100), VEGF165 amine-coupled on CM4 chip, scFv 2.5-20 nM injected, 1:1 Langmuir model; fresh reference, time 0. Here is the method: as §1, §2

T1 sequence (P15692 other isoform, or with tags, fused parts or gaps limits assumed): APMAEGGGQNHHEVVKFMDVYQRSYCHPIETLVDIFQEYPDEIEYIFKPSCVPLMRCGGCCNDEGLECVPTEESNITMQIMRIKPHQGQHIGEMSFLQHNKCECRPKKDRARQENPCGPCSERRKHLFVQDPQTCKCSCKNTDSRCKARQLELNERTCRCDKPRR

B1: ESBA903 (scFv)
scFv: EIVMTQSPSTLSASVGDRVIITCQASEIIHSWLAWYQQKPGKAPKLLIYLASTLASGVPSRFSGSGSGAEFTLTISSLQPDDFATYYCQNVYLASTNGANFGQGTKLTVLGGGGGSGGGGSGGGGSGGGGSEVQLVESGGGLVQPGGSLRLSCTASGFSLTDYYYMTWVRQAPGKGLEWVGFIDPDDDPYYATWAKGRFTISRDTSKNTVYLQMNSLRAEDTAVYYCAGGDHNSGWGLDIWGQGTLVTVSS
notes: Monomeric scFv (about 25 kDa); same protein in all samples; also called humanized antibody-fragment ESBA903; humanized VEGF-antibody fragment ESBA903
As usually defined, the Kd is the equilibrium constant for the complex coming apart. By koff is commonly meant the rate constant with which the complex falls apart. In general, kon refers to the rate constant with which the complex forms. Turning to B1, the Kd in assay [1] is 0.0762 nM and 0.066 nM and 0.0826 nM; in assay [2] it was 0.0643 nM and 0.0521 nM and 0.0552 nM; in assay [3], 0.0594 nM and 0.0685 nM and 0.0489 nM; in assay [4], 0.0256 nM. Moreover, the dissociation rate constant (koff) in assay [1] is 3.11e-05 s⁻¹ and 2.78e-05 s⁻¹ and 3.37e-05 s⁻¹; in assay [2], 3.56e-05 s⁻¹ and 3.03e-05 s⁻¹ and 2.34e-05 s⁻¹; in assay [3], 2.77e-05 s⁻¹ and 3e-05 s⁻¹ and 2.59e-05 s⁻¹; in assay [4], 2.45e-05 s⁻¹. Also, the kon in assay [1] was 407000 M⁻¹ s⁻¹ and 421000 M⁻¹ s⁻¹ and 408000 M⁻¹ s⁻¹; in assay [2], 554000 M⁻¹ s⁻¹ and 582000 M⁻¹ s⁻¹ and 424000 M⁻¹ s⁻¹; in assay [3], 465000 M⁻¹ s⁻¹ and 439000 M⁻¹ s⁻¹ and 529000 M⁻¹ s⁻¹; in assay [4], 956000 M⁻¹ s⁻¹.
